Laboratory results: paper PMC2288801
Values belong to the substance of their own block, whether it stands above or below them.

Experiments:
[1] = target: human plasma fibronectin (human); assay: ligand affinity chromatography
[2] = target: laminin from the Engelbreth-Holm-Swarm murine tumor (mouse) (UniProt P19137)
[3] = target: collagen type I (UniProt P02452)
[4] = target: human plasma fibronectin (human)

Sequence of UniProt P02452 (P02452 162-1218, chain 1 of 2): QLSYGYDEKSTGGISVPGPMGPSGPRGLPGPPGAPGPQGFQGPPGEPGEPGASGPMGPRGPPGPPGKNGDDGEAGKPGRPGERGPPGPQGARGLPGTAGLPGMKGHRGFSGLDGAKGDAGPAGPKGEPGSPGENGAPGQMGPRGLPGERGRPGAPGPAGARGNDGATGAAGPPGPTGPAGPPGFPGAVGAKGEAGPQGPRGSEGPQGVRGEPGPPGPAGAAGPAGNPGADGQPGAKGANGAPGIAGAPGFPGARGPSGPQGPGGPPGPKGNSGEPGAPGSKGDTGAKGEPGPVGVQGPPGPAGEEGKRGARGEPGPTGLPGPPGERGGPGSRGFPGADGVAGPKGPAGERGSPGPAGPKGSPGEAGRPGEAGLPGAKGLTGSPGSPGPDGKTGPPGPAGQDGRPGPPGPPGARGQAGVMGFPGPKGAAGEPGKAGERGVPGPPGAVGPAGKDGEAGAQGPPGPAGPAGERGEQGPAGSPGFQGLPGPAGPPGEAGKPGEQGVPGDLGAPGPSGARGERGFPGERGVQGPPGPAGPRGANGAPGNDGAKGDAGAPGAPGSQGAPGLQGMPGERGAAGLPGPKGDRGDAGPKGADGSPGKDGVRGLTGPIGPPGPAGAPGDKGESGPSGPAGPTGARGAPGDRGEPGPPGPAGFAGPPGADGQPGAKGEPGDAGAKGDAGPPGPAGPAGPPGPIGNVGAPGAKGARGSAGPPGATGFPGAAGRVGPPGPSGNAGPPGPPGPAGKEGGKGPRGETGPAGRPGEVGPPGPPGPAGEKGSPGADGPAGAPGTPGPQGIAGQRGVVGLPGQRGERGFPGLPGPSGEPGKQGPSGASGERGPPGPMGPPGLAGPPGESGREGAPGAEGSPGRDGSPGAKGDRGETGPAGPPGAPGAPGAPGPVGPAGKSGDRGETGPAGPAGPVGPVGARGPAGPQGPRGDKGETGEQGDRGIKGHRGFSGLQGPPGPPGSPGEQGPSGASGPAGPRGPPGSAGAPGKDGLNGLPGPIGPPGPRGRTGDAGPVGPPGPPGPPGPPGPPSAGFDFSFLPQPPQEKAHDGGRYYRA
Sequence of UniProt P02452 (P08123 80-1119, chain 2 of 2, further chain): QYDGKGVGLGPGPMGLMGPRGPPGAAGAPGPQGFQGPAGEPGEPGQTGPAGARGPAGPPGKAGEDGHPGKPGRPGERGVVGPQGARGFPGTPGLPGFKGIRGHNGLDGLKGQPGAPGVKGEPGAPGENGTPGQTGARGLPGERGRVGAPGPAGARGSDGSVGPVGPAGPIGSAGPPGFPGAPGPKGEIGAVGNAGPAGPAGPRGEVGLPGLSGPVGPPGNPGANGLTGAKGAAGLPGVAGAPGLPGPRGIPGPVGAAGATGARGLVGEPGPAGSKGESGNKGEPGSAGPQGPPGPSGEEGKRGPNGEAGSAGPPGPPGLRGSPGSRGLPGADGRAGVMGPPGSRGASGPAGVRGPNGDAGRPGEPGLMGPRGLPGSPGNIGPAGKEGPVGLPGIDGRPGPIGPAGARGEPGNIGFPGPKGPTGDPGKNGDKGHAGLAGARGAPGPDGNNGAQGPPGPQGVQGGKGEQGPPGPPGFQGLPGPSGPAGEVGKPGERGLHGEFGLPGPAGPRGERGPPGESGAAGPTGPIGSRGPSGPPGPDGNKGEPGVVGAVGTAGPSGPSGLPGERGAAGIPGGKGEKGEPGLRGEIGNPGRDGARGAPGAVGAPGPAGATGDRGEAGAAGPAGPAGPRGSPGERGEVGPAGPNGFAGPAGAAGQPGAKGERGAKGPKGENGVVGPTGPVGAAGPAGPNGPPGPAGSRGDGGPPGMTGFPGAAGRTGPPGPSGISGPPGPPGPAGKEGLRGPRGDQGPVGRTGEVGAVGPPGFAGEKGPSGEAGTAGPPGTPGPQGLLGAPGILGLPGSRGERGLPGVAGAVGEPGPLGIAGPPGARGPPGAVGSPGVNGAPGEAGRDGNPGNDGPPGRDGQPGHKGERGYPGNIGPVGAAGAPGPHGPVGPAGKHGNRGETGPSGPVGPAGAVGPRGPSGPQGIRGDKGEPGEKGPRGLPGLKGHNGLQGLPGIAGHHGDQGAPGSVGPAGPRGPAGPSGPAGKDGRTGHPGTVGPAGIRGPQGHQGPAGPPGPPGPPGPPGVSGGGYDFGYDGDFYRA

Substance: integrin VLA-6 (alpha6 beta1) (from UniProt P05556 21-798) (receptor)
inhibition of LOX cell attachment to Lm by anti-VLA-6 mAb (GoH3) [2]: 77% | inhibition of NCI-H69 cell attachment to Lm by anti-VLA-6 mAb GoH3 [2]: 53%

Substance: integrin VLA-2 (alpha2 beta1) from LOX melanoma cells (from UniProt P17301;P05556) (receptor)
inhibition of LOX cell attachment to Coll type I by anti-VLA-2 mAb (5E8) [3]: 76%

Substance: integrin VLA-5 (alpha5 beta1) from LOX melanoma cells (from UniProt P05556 21-798) (receptor)
inhibition of LOX cell attachment to Fn by anti-VLA-5 mAb (P1D6) [4]: 85%

The next lines start with the values.

percent of VLA-3 bound to the column [1]: 100%
Substance: integrin VLA-3 (alpha3 beta1) from LOX melanoma cells (from UniProt P05556 21-798) (receptor)

Table II: inhibition of binding by Ca++ relative to Mg++ (ligand Coll-I,IV) [3]: 15% | Table II: stimulation of binding by Mn++ relative to Mg++ (ligand Coll-I,IV) [3]: 1.4 fold
Substance: integrin VLA-3 (alpha3 beta1) from NCI-H69 small cell lung carcinoma cells (from UniProt P05556 21-798) (receptor)
